In patent US20030157132A1:

Biological target: E2tag (tPA signal+E2(384-711)+tag; soluble E2/NS1 of HCV J1 clone with C-terminal E-tag) (hepatitis C virus (HCV J1 clone))
Experiment: SPR, BIACORE X; E2tag amine-coupled to CM5 chip, scFv1-1 injected in HBS buffer

- Kd: 2.2 nM
B1: single chain antibody scFv1-1 (scFv)
scFv: QVQLVQSGAEVKKPGSSVKVSCKASGGTYIDQPIGWVRQAPGQGLEWMGGIIPLSGPPHYAQKFQGKVSITADESTSTAYLELTSLTSEDTAVYYCARVLRGYCRRGSCYDWLDPWGQGTLVTVSSGGGGSGGGGSGGGGSALDIQMTQSPSSLSASVGDRVTITCQASQDISNYLNWYQQKPGKAPKLLLYATSRLYSGVPSRFSGSGSGTDFTLSISSLQPEDFATYYCQQTKSFPLTFGGGTKVEIKRAAAEQKLISEEDLGSRSTHHAHHHAA
